Experimental findings from article PMC9465852, “Comparative analyses of vertebrate CPEB proteins define two subfamilies with coordinated yet distinct functions in post-transcriptional gene regulation” are described below.

Series [1] addresses T1, CPEB4 (Xenopus laevis, UniProt A0A1L8GV75 1-702). Put plainly: AlphaScreen; 50 nM protein, 0.5-75 nM RNA; CPEB4 binds A- and G-CPE equally well; 10 mM HEPES pH 7.4, 100 mM KCl, 3 mM MgCl2, 1 mM DTT, 0.2 mg/mL tRNA, 0.1% Tween; room temperature; 50 or 75 nM protein. To be noted: protein: recombinant; tags: 6xHis; label: 3' biotin; single strand. (In general: In Alpha technology, singlet oxygen from a donor bead excites a nearby acceptor bead.)

In series [2] the target is T1, CPEB4. Kind of series: AlphaScreen; 50 nM protein, 0.5-75 nM RNA; equal to or better than CPE-A; 10 mM HEPES pH 7.4, 100 mM KCl, 3 mM MgCl2, 1 mM DTT, 0.2 mg/mL tRNA, 0.1% Tween; room temperature; 50 or 75 nM protein. To be noted: protein: recombinant; tags: 6xHis; label: 3' biotin; single strand.

T1 sequence (A0A1L8GV75 entry or part of it): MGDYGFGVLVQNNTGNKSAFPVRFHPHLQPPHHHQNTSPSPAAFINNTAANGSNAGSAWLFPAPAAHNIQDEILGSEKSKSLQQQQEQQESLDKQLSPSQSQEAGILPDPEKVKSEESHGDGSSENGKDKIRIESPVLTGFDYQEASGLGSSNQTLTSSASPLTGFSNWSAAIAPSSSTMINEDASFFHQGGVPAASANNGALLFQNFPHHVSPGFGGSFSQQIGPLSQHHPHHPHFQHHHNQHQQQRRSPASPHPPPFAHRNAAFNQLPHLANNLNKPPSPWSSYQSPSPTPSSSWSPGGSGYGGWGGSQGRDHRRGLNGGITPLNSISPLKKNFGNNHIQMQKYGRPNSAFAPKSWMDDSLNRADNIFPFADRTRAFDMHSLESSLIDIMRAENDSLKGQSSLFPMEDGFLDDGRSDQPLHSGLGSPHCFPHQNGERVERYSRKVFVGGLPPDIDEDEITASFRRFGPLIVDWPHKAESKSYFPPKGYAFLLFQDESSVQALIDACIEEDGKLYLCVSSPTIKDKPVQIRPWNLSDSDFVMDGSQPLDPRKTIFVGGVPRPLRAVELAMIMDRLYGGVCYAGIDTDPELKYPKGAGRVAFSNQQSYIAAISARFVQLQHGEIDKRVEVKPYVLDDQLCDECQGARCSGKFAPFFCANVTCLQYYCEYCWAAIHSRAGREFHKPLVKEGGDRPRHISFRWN

AGUGUACAGUGUUUUUAAUAGUUUGUUG (ssRNA, 3' biotin) [CPE-A]: the binding result in series [1] was “binds”.
In the case of AGUGUACAGUGUUUUUGUAAGUUUGUUG (ssRNA, 3' biotin) [CPE-G], the binding result in series [2] was “binds”.
